These are literature values, as cited in PMC9705454 (Clinical Drug Investigation, 2022).

The conditions of series [1]: metabolite slowly released from the subcutaneous depot.

With insulin glargine, the “share of plasma exposure accounted for by the main active metabolite” value in series [1] is reported as > 90%.

Regarding teduglutide, the half-life in circulation result is recorded as “approximately 2 h”.
